Test [1] has as its target T1, His-tagged human EGFR extracellular domain (human, UniProt P00533 25-645).
T1 construct: extracellular domain; Coated at 3.0 ug/mL to capture the EGFR-targeting constructs; not shown: His tag
In words: ELISA, construct captured on coated His-tagged human EGFR extracellular domain.

For test [2], the target named is T2, biotinylated dimeric CD16A antigen (human, UniProt P08637 17-208, limits assumed, biotinylated (site not stated)).
T2 construct: Soluble antigen; also called soluble CD16A antigen
T2 sequence (P08637 17-208 limits assumed): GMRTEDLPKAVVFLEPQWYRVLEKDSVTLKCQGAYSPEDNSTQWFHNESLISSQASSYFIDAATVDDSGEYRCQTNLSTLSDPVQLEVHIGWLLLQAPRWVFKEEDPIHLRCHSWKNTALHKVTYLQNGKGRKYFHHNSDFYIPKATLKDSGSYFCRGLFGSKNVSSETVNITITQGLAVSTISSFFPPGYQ
In words: ELISA, biotinylated dimeric CD16A titrated on construct captured by coated His-tagged human EGFR extracellular domain. How it is done: (§1) For the capturing approach, 96-well ELISA plates (Immuno Maxisorp, Nunc) were coated overnight at 4° C. with His-tagged human EGFR or BCMA extracellular domain at concentrations of 3.0 or 0.4 μg/mL, respectively. After blocking with 3% (w/v) skimmed milk powder dissolved in phosphate buffered saline (PBS), antigen coated plates were used for capturing of different multivalent bispecific engagers at concentrations of 3-5 μg/mL in PBS containing 0.3% (w/v) skimmed milk powder. After washing three times with 300 μL per well of PBS containing 0.1% (v/v) Tween 20, plates were incubated with serial dilutions of biotinylated dimeric or monomeric CD16A antigen in PBS containing 0.3% (w/v) skimmed milk powder for 1.5 h at room temperature. After washing, plates were incubated with the detection conjugate Streptavidin HRP, 1:10,000 diluted in PBS containing 0.3% (w/v) skimmed milk powder for 1 h followed by washing and incubation with tetramethylbenzidine substrate (Seramun) for 1-2 min. Reaction was stopped by addition of 0.5 M H₂SO₄ (100 μL/well). Absorbance was measured at 450 nm using a multiwell plate reader, plotted and EC₅₀ values were determined by fitting a nonlinear regression model to sigmoidal dose-response curves (four parameters logistic fit) using GraphPad Prism software.
(§2) Concentration dependent binding of antibody constructs to coated recombinant CD16A antigen, or of soluble monomeric or dimeric CD16 antigen variants to coated or target antigen captured antibody constructs was analyzed in ELISA. Half maximal binding concentrations (EC₅₀) were determined by fitting a nonlinear regression model to sigmoidal dose-response curves (four parameters logistic fit) using GraphPad Prism software.

Test [3] addresses T3, biotinylated monomeric CD16A antigen (human, UniProt P08637 17-208, limits assumed, biotinylated (site not stated)).
T3 construct: Soluble antigen; also called soluble CD16A antigen
In words: ELISA, biotinylated monomeric CD16A titrated on coated construct. The procedure:
as §1, §2

In test [4] the target is T3, biotinylated monomeric CD16A antigen. In words: ELISA, biotinylated monomeric CD16A titrated on construct captured by coated His-tagged human EGFR extracellular domain. The procedure: as §1, §2
Test [5] deals with T2, biotinylated dimeric CD16A antigen. In words: ELISA, biotinylated dimeric CD16A titrated on coated construct. The procedure: as §1, §2
The target in test [6] is recombinant CD16A 158V fused to monomeric human Fc (human, UniProt P08637 17-208). In words: ELISA, construct titrated on coated CD16A 158V fused to monomeric human Fc.
Chain of recombinant CD16A 158V fused to monomeric human Fc (P08637 17-208 F176V): as the sequence (P08637 17-208 limits assumed) above, with F160V counted along it
In test [7] the target is T4, recombinant CD16A 158F fused to monomeric human Fc (human, UniProt P08637 17-208).
T4 construct: also called recombinant CD16 antigen variant; not shown: monomeric human Fc
T4 sequence (P08637 17-208): as the sequence (P08637 17-208 limits assumed) above
In words: ELISA, construct titrated on coated CD16A 158F fused to monomeric human Fc. How it is done: To assess binding of EGFR/CD16 or BCMA/CD16 antibodies to coated antigen in ELISA, 96-well ELISA plates (Immuno Maxisorp, Nunc) were coated overnight at 4° C. with recombinant CD16 antigen variants fused to monomeric human Fc at a concentration of 1.5 μg/mL in 100 mM carbonate-bicarbonate buffer. After blocking with 3% (w/v) skimmed milk powder dissolved in phosphate buffered saline (PBS) serial dilutions of bispecific antibody constructs were incubated on the antigen coated plates for 1.5 h at room temperature. […] After washing, plates were incubated with tetramethylbenzidine substrate (Seramun) for 1-2 min. Reaction was stopped by addition of 0.5 M H₂SO₄ (100 μL/well). Absorbance was measured at 450 nm using a multiwell plate reader, plotted and EC₅₀ values were determined by fitting a nonlinear regression model to sigmoidal dose-response curves (four parameters logistic fit) using GraphPad Prism software.
as §2

The target in test [8] is CD38 on primary human NK cells (human, UniProt P28907 1-300). In words: cell-based or functional assay.
The target of test [9] is T2, biotinylated dimeric CD16A antigen. In words: ELISA, biotinylated dimeric CD16A titrated on construct captured by coated His-tagged human BCMA extracellular domain. How it is done: as §1, §2
Test [10] deals with T3, biotinylated monomeric CD16A antigen. In words: ELISA, biotinylated monomeric CD16A titrated on construct captured by coated His-tagged human BCMA extracellular domain. How it is done:
as §1, §2

Test [11] addresses T5, BCMA on MM.1S target cells (UniProt Q02223 1-184, limits assumed).
T5 sequence (looked up): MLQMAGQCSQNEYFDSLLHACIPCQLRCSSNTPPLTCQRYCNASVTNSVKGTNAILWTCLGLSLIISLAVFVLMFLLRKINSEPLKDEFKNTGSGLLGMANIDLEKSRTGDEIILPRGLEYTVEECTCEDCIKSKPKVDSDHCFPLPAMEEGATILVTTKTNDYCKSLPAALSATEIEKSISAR
In words: cell-based or functional assay.

T3 sequence (P08637 17-208 limits assumed): as the sequence (P08637 17-208 limits assumed) above

B1: scFv-IgAb_47 (bispecific antibody)
heavy: QVQLVQSGAEVKKPGESLKVSCKASGYTFTSYYMHWVRQAPGQGLEWMGAIEPMYGSTSYAQKFQGRVTMTRDTSTSTVYMELSSLRSEDTAVYYCARGSAYYYDFADYWGQGTLVTVSSASTKGPSVFPLAPSSKSTSGGTAALGCLVKDYFPEPVTVSWNSGALTSGVHTFPAVLQSSGLYSLSSVVTVPSSSLGTQTYICNVNHKPSNTKVDKKVEPKSCDKTHTCPPCPAPEFEGGPSVFLFPPKPKDTLMISRTPEVTCVVVAVSHEDPEVKFNWYVDGVEVHNAKTKPREEQYNSTYRVVSVLTVLHQDWLNGKEYKCKVSNKALPAPIEKTISKAKGQPREPQVYTLPPSREEMTKNQVSLTCLVKGFYPSDIAVEWESNGQPENNYKTTPPVLDSDGSFFLYSKLTVDKSRWQQGNVFSCSVMHEALHNHYTQKSLSLSPGGGGGSGGGGSQVQLQESGPGLVKPSETLSLTCTVSGGSVSSGSYYWSWIRQPPGKGLEWIGYIYYSGSTNYNPSLKSRVTISVDTSKNQFSLKLSSVTAADTAVYYCARNPISIPAFDIWGQGTMVTVSSGGSGGSGGSGGSGGSGGSQPVLTQPPSVSVAPGKTARITCGGNNIGSKSVHWYQQKPGQAPVLVIYYDSDRPSGIPERFSGSNSGNTATLTISRVEAGDEADYYCQVWDTSSDHVLFGGGTKLTVL
light: SYVLTQPSSVSVAPGQTATISCGGHNIGSKNVHWYQQRPGQSPVLVIYQDNKRPSGIPERFSGSNSGNTATLTISGTQAMDEADYYCQVWDNYSVLFGGGTKLTVLGQPKAAPSVTLFPPSSEELQANKATLVCLISDFYPGAVTVAWKADSSPVKAGVETTTPSKQSNNKYAASSYLSLTPEQWKSHRSYSCQVTHEGSTVEKTVAPTECS
As for B1, in test [1], the binding result is “binds”. Also, the EC50 is 0.76 nM in [2]; 2 nM in test [3]; 1.62 nM in [4]; 0.89 nM in [5]; 0.16 nM in test [6]; 0.18 nM in test [7].

B2: IgAb_51 (antibody, V domains shown)
VH: EVQLLESGGGLVQPGGSLRLSCAVSGFTFNSFAMSWVRQAPGKGLEWVSAISGSGGGTYYADSVKGRFTISRDNSKNTLYLQMNSLRAEDTAVYFCAKDKILWFGEPVFDYWGQGTLVTVSS
VL: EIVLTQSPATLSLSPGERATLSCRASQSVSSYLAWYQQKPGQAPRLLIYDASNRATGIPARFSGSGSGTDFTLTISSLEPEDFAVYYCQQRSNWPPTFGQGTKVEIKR
As for B2, in [8], the “EC50 [pM], 4 h calcein-release NK cell fratricide assay, E:T 1:1” value was 66.5 pM and the “Emax [%], 4 h calcein-release NK cell fratricide assay, E:T 1:1” value was 68.6%.

B3: aBi-scDb-Fc_02 (bispecific antibody)
chain 1: DKTHTCPPCPAPEFEGGPSVFLFPPKPKDTLMISRTPEVTCVVVAVSHEDPEVKFNWYVDGVEVHNAKTKPREEQYNSTYRVVSVLTVLHQDWLNGKEYKCKVSNKALPAPIEKTISKAKGQPREPQVYTLPPSREEMTKNQVSLTCLVKGFYPSDIAVEWESNGQPENNYKTTPPVLDSDGSFFLTSKLTVDKSRWQQGNVFSCSVMHEALHNHYTQKSLSLSPGGGGGSGGGGSSYVLTQPSSVSVAPGQTATISCGGHNIGSKNVHWYQQRPGQSPVLVIYQDNKRPSGIPERFSGSNSGNTATLTISGTQAMDEADYYCQVWDNYSVLFGGGTKLTVLGGSGGSQVQLVQSGAEVKKPGESLKVSCKASGYTFTSYYMHWVRQAPGQGLEWMGAIEPMYGSTSYAQKFQGRVTMTRDTSTSTVYMELSSLRSEDTAVYYCARGSAYYYDFADYWGQGTLVTVSSGGSGGSGGSGGSGGSGGSSYVLTQPSSVSVAPGQTATISCGGHNIGSKNVHWYQQRPGQSPVLVIYQDNKRPSGIPERFSGSNSGNTATLTISGTQAMDEADYYCQVWDNYSVLFGGGTKLTVLGGSGGSQVQLVQSGAEVKKPGESLKVSCKASGYTFTSYYMHWVRQAPGQGLEWMGAIEPMYGSTSYAQKFQGRVTMTRDTSTSTVYMELSSLRSEDTAVYYCARGSAYYYDFADYWGQGTLVTVSSAAAGSHHHHHH
chain 2: EVQLLESGGGLVQPGGSLRLSCAASGFTFSNYDMAWVRQAPGKGLEWVSSISTRGDITSYRDSVKGRFTISRDNSKNTLYLQMNSLRAEDTAVYYCARQDYYTDYMGFAYWGQGTLVTVSSGGGGSGGGGSGGGGSAIQMTQSPSSLSASVGDRVTITCRASEDIYNGLAWYQQKPGKAPKLLIYGASSLQDGVPSRFSGSGSGTEFTLTISSLQPEDEATYYCAGPHKYPLTFGGGTKVEIKDKTHTCPPCPAPEFEGGPSVFLFPPKPKDTLMISRTPEVTCVVVAVSHEDPEVKFNWYVDGVEVHNAKTKPREEQYNSTYRVVSVLTVLHQDWLNGKEYKCKVSNKALPAPIEKTISKAKGQPREPQVYTLPPSREEMTKNQVSLYCLVKGFYPSDIAVEWESNGQPENNYKTTPPVLDSDGSFFLYSKLTVDKSRWQQGNVFSCSVMHEALHNHYTQKSLSLSPGGGGGSGGGGSSYVLTQPSSVSVAPGQTATISCGGHNIGSKNVHWYQQRPGQSPVLVIYQDNKRPSGIPERFSGSNSGNTATLTISGTQAMDEADYYCQVWDNYSVLFGGGTKLTVLGGSGGSQVQLVQSGAEVKKPGESLKVSCKASGYTFTSYYMHWVRQAPGQGLEWMGAIEPMYGSTSYAQKFQGRVTMTRDTSTSTVYMELSSLRSEDTAVYYCARGSAYYYDFADYWGQGTLVTVSSGGSGGSGGSGGSGGSGGSSYVLTQPSSVSVAPGQTATISCGGHNIGSKNVHWYQQRPGQSPVLVIYQDNKRPSGIPERFSGSNSGNTATLTISGTQAMDEADYYCQVWDNYSVLFGGGTKLTVLGGSGGSQVQLVQSGAEVKKPGESLKVSCKASGYTFTSYYMHWVRQAPGQGLEWMGAIEPMYGSTSYAQKFQGRVTMTRDTSTSTVYMELSSLRSEDTAVYYCARGSAYYYDFADYWGQGTLVTVSSAAAGSHHHHHH
For the molecule B3, the EC50 in test [3] was 3.84 nM; in test [9], 1.25 nM; in test [5], 1 nM; in test [6] it was 0.34 nM; in test [10] it was 2.36 nM; in test [7] it was 0.45 nM. The “EC50 [pM], 4 h calcein-release cytotoxicity on BCMA+ MM.1S target cells, NK cells E:T 5:1” value in test [11] is 2.3 pM. For the same molecule, the “Emax [%], 4 h calcein-release cytotoxicity on BCMA+ MM.1S target cells, NK cells E:T 5:1” value in test [11] is 62.8%.

(Values after US20240376208A1 (AFFIMED, published 2024).)
